PMC6543838, “Assessing Cofactor Usage in Pseudoclostridium thermosuccinogenes via Heterologous Expression of Central Metabolic Enzymes” (Frontiers in Microbiology, 2019)

Key:
purified protein [1] = substrate: Nc1nc2c(ncn2[C@@H]2O[C@H](COP(=O)(O)OP(=O)(O)OP(=O)(O)O)[C@@H](O)[C@H]2O)c(=O)[nH]1; assay: purified protein; type: biochemical, Clostridium thermosuccinogenes; details: 5 mM D-galactose, 10 mM MgCl2, 100 mM KCl, MOPS pH 7.0, 55 °C
purified protein [2] = substrate: Nc1ncnc2c1ncn2[C@@H]1O[C@H](COP(=O)(O)OP(=O)(O)OP(=O)(O)O)[C@@H](O)[C@H]1O; assay: purified protein; type: biochemical, Clostridium thermosuccinogenes; details: 5 mM D-galactose, 10 mM MgCl2, 100 mM KCl, MOPS pH 7.0, 55 °C

B1: galactokinase (GalK), CDQ83_02810 (Clostridium thermosuccinogenes) (protein)
chain: DINQLKQKFIEIFGDNGEALRVFSSPGRVNLIGEHTDYNGGYVFPAALTLSSTVVARPRKDRQINLIATDLGIMVSASLDELEKHKDIKWGNYQLGVADELQKAGYKLVGCDMLFHDTVPLGSGLSSSAAIEVVTAITLVTLGNEAHGVNSGIDMVEMAKISQTAEHNYVGVNCGIMDQFASAMGKANHAIFLDCKDLSFEHVPLDLKGYRIVISNTKKKRSLGAVKYNERRSECEAGLEILKKAIPGISCLGEISAEQFEKNKHLITDEVVRKRVEHVIYEDDRVLKSVEALKKGDLHSFGRYMIESHNSLRDLYEVTGLELDTLVEEALKIDGVIGSRMTGAGFGGCTVSIVREDAVDRFIEDVGSAYTQKTGITAEFYVSEVGDGGREIK
notes: full length, N-terminal His6-TEV tag kept, E. coli Rosetta, HisTrap purified
Purified protein [1]
  Km: 35 µM
  kcat: 2.56 ⋅ 10^3 U/umol of
Purified protein [2]
  Km: 3980 µM
  kcat: 1.07 ⋅ 10^3 U/umol of
